{
  "source": "patent CN114591427A",
  "about": "(SHENZHEN LIGHT AND BIOTECHNOLOGY CO LTD; GUANGDONG PEOPLES …, dated 2022)",
  "binders": {"B1": {"name": "鼠抗MPT32蛋白单克隆抗体 (secreted by hybridoma cell line 13B12, CCTCC NO:C2021305) (antibody, V domains shown)", "VH": "QVQLQQSGAELVKPGASVKMSCKASGFTFTSYWINWVKQRPGQGLEWIGDLYPGRGITNYNEKFKPKATLTLDTSSSTAYMQLSSLTSEDSAVYYCSTGPYWGQGTILTVSS", "VL": "not shown", "notes": "also called 鼠抗MPT32单克隆抗体; MPT32蛋白抗体"}},
  "target": "T1, MPT32蛋白 in protein extracts of clinical samples of tuberculosis patients (结核分枝杆菌 (Mycobacterium tuberculosis), UniProt P9WIR7 40-325)",
  "T1 construct": "Native antigen detected by western blot in patient samples; also called 结核分枝杆菌MPT32蛋白; 抗原蛋白",
  "T1 sequence (looked up)": "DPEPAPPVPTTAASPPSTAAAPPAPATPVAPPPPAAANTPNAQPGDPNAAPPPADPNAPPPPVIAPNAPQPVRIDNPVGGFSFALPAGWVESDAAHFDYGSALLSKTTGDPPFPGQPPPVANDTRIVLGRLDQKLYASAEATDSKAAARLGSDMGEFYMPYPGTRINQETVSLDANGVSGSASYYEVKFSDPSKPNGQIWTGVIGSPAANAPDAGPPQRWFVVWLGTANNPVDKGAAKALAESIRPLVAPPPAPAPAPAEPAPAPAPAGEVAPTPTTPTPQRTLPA",
  "assay": "western blot of protein extracts of clinical samples",
  "data": [
    {"binder": "B1", "values": [
      {"measurement": "binding result", "result": "binds"}
    ]}
  ]
}
